The test concerns the target T1, recombinant human interleukin 1 alpha (IL-1α) (human, UniProt P01583 113-271).
T1 sequence (looked up): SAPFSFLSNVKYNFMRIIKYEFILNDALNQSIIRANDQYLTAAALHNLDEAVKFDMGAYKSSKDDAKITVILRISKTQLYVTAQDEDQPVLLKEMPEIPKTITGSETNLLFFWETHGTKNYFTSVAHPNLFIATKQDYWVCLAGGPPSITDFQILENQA
In words: cell-based or functional assay.

B1: XIA11 human monoclonal antibody (antibody, V domains shown)
VH: QVQLVQSGAEVKKPGSSVKVSCKASGGRFTNYAILWVRQAPGQGLQWLGGIIPIFDETDHAQDFQDRLTITVDESMTTAYMELSSLRPEDTAIYYCATGSNSYYGLYWGQGTLVTVSS
VL: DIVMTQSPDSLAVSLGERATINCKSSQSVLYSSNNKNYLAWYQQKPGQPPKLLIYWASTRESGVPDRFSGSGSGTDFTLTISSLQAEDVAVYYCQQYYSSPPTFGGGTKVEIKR
On to B1, for which the “HUVEC-based potency assay (ICAM-1 expression by flow cytometry), IC50” value was determined as 3.4 ng/mL.

The values are drawn from patent publication US20260132193A1 (XBIOTECH, published 2026).
